Assay results from patent US20160200813A1 (AbbVie / Abbott, published 2016).
Where “and” joins values, the source holds several entries; their conditions need not be identical. Identical values can stand only once. *1 amine or outer side, *2 acyl side, *3 side chain or, on linkers, in order; H or OH if unused. Bridges are numbered along the chain shown (N, C = ends). Where no end group is shown, it is not given here. Lys(Aoa) = NOCC(=O)NCCCC[C@H](N[*:1])C(=O)[*:2]

Experiments:
[1] = target: T1, Cynomolgus monkey LRP-8 expressed on HEK293 cells (cynomolgus monkey); experiment: cell-based ECL-MSD, 10 ug/ml Ab, cyno-LRP-8-HEK293
T1 construct: whole, on cells; also called cyno LRP-8; cLRP-8
Description: (§1) A cell-based ECL-MSD binding assay was used to determine antibody affinity. HEK293 cells overexpressing human, monkey or mouse LRP-8 were added onto MSD 96-well plate (MSD Cat# L15XB-3/L11XB-3) and incubated at 37° C. for one hour. Cells were blocked using 15% FBS (Hyclone, Thermo Scientific Cat# SH300700.03) at RT for 30 minutes with mild agitation. Plates were washed with DPBS three times and Abs or DVD-Ig binding proteins were added to the well. After incubation at RT for one hour, plates were washed with DPBS and goat anti-human or anti-mouse Sulfo TAG (MSD Cat#R32AJ-1) was added. Plates were incubated at RT for one hour, washed with DPBS and immersed in MSD read buffer (MSD Cat#R92TD-2) before reading on a MSD SECTOR Imager 6000. EC50 values were obtained using Xlfit4 software system.

[2] = target: T2, Human LRP-8 (isoform 3) expressed on cells (human, UniProt Q14114 33-963); experiment: cell-based ECL-MSD, 10 ug/ml Ab, human_LRP-8_HEK293
T2 construct: also called hLRP-8; huLRP-8
Description: as §1

[3] = target: T2, Human LRP-8 (isoform 3) expressed on …; experiment: cell-based or functional assay
[4] = target: T1, Cynomolgus monkey LRP-8 expressed on …; experiment: cell-based binding assay, cynoLRP8
[5] = target: T2, Human LRP-8 (isoform 3) expressed on …; experiment: cell-based binding assay, hLRP8
[6] = target: T1, Cynomolgus monkey LRP-8 expressed on …; experiment: cell-based binding on CYNO LRP8-HEK293, supernatant 1:25
[7] = target: T1, Cynomolgus monkey LRP-8 expressed on …; experiment: cell-based binding on CYNO LRP8-HEK293, supernatant 1:125
[8] = target: T1, Cynomolgus monkey LRP-8 expressed on …; experiment: cell-based binding on CYNO LRP8-HEK293, supernatant 1:5
[9] = target: T1, Cynomolgus monkey LRP-8 expressed on …; experiment: cell-based MSD-ECL binding on cells overexpressing cyno LRP-8 variant 1 (cynoLRP8 assay)
Description: as §1

[10] = target: T2, Human LRP-8 (isoform 3) expressed on …; experiment: cell-based MSD-ECL binding on cells overexpressing human LRP-8 variant 3 (hLRP8 assay)
Description: as §1

[11] = target: T1, Cynomolgus monkey LRP-8 expressed on …; experiment: FACS, cyno LRP8 cells
[12] = target: T3, CR1 cyclic peptide of human LRP-8 (human, disulfide 1-13); experiment: ELISA using CR1 peptide
T3 construct: also called CR1 peptide; conjugated human LRP-8 CR1 peptide
T3 peptide: CEKDQFQSRNERCIPSVWR-{Lys(Aoa)-NH2}

T2 sequence (Q14114 other isoform, or with tags, fused parts or gaps limits assumed): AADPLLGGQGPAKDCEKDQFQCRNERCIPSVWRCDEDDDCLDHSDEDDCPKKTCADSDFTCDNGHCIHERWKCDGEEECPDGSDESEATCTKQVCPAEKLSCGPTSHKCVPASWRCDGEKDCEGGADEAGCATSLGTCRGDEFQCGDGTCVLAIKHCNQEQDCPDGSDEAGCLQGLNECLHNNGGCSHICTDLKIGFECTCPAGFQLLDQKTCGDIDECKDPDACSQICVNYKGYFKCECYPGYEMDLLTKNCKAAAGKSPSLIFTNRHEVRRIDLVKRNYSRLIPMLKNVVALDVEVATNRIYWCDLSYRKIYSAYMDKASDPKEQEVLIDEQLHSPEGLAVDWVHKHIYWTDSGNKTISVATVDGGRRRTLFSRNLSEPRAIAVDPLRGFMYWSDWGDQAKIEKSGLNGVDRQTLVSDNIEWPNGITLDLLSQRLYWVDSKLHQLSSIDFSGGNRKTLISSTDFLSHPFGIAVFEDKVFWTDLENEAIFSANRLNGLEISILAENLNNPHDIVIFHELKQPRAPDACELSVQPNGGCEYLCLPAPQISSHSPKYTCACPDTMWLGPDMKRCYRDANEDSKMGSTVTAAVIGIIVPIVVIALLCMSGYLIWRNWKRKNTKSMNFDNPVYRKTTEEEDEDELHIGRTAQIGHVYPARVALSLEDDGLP

B1: anti-LRP-8 antibody ab58216 (mFc) (antibody, V domains shown)
VH: EVHLQQSGPEVVKPGASVKISCKASGYIISGYFLNWVKQSHGKSLEWVGRINPYSGDTFFNQKFKGKATLTVDKSSNTAHMELRSLTSEDSAVFYCAREDIGRFAYWGQGTLVTVSA
VL: DVLMTQTPLSLPVSLGDQASISCRSSQTIVHSNGNTYLEWYLQKPGQSPKLLIYKVSNRFSGVPDRFSGSGSGTDFTLKISRVEAEDLGVYYCFQGSHAPPTFGGGTKLEIK
notes: Mouse Fc form
- fold over mIgG control [1]: 1.2 fold
- fold over mIgG control [2]: 17.3 fold
- Endocytosis, fold over IgG control [3]: 2.6 fold
- Transcytosis, fold over IgG control [3]: 1.53 fold

B2: anti-LRP-8 BGK-7A11 chimeric antibody (CL-105959) (antibody, V domains shown)
VH: QVTLKESGPGILQPSQTLSLTCTFSGFSLSTYGMGVGWIRQPAGTGLEWLANIWWDDDKYYNPSLKNRLTISKDTSNNQVFLKITNVDTADTATYYCARTTKPYYFDYWGQGVMVTVSS
VL: HFVLAQPNSVSTNLGSTVKLSCKRSTGNSGSNYVNWYQQYEGRSPTTMIYRDDKRPDGVPDRFSGSIDRSSNSALLTINNVQTEDEADYFCQSYSSGINIFGGGTKLTVL
- EC50 [4]: 0.53 nM
- EC50 [5]: 0.12 nM

B3: anti-LRP-8 ML201-8F3.3D7 murine antibody (muFc) (antibody, V domains shown)
VH: EVQLVESGGDLVKPGGSLKLSCAASRFTFSNFGMSWVRQTPDKRLEWVATISSGGRYTYYPDSVKGRFTISRDNAKNTLYLQMSSLRSEDTAMYYCARDYLYAMDYWGQGTSVTVSS
VL: DVVMTQTPLSLPVSLGDQASISCRSSQSLVYSNGNTYLHWYLQKPGQSPKVLMYKVSNRFSGVSDRFSGSGSGTDFTLKISRVEAEDLGVYFCSQSTHVPLTFGAGTKLELK
notes: Mouse Fc form; also called ML201-8F3-3D7 muFc; CL-33866
- fold over mIgG control [1]: 5.2 fold
- fold over mIgG control [2]: 13.6 fold
- Endocytosis, fold over IgG control [3]: 1.6 fold
- Transcytosis, fold over IgG control [3]: 1.08 fold

B4: chimeric anti-LRP-8 ML201-8F3.3D7 antibody (antibody, V domains shown)
VH: EVQLVESGGDLVKPGGSLKLSCAASRFTFSNFGMSWVRQTPDKRLEWVATISSGGRYTYYPDSVKGRFTISRDNAKNTLYLQMSSLRSEDTAMYYCARDYLYAMDYWGQGTSVTVSS
VL: DVVMTQTPLSLPVSLGDQASISCRSSQSLVYSNGNTYLHWYLQKPGQSPKVLMYKVSNRFSGVSDRFSGSGSGTDFTLKISRVEAEDLGVYFCSQSTHVPLTFGAGTKLELK
notes: also called ML201.8F3.3D7 hFc; CL-33866
- EC50 [5]: 0.16 nM

B5: anti-LRP-8 ML201-2B4.2B1.2H10 murine antibody (muFc) (antibody, V domains shown)
VH: DVKLVASGGGLVKPGGSLKLSCAASGFTLSRYAMSWVRQTPEKRLEWVAYIRNGGDYIYYADTVKGRFTISRDNARNTLYLQMSSLKSEDTAMYYCTREGSYYNFDYWGQGTTLTVSS
VL: DVLMTQTPLSLPVSLGDQASISCRSSQSIVHSNGNTYLEWYLQKPGQSPNLLIFKVSNRFSGVPDRFIGSGSGTDFTLKISRVEAEDLGVYYCFQGSHVPWTFGGGTKLEIK
notes: Mouse Fc form; also called ML201-2B4.2B1.2H10 muFc; CL-33867
- fold over mIgG control [1]: 2.8 fold
- fold over mIgG control [2]: 14.2 fold
- Endocytosis, fold over IgG control [3]: 1.8 fold
- Transcytosis, fold over IgG control [3]: 1.44 fold

B6: anti-LRP-8 BGK.2C8.E6.D3 [r/m IgG2a/K] (antibody, V domains shown)
VH: QVTLKESGPGILQPSQTLSLTCTFSGFSLNTYGMGVGWVRQPSGKGLEWLANIWWDDDKFYNPSLKNRLTVSKDTSNNQAFLRITNGDTADTATYFCARILGEDIGGALDAWGQGTSVTVSS
VL: DTVLTQSPALAVSPGERVSISCRASEGVNSYMHWYQQNPGQQSKLLIYRTSNLASGVPARFGGSGSGTDFTLTIDPVEADDTATYFCQQSWNDPPTFGGGTKLELK
- EC50 [4]: 0.31 nM
- fold over isotype control [6]: 13.8 fold
- EC50 [5]: 0.1 nM
- fold over isotype control [7]: 13.7 fold
- fold over isotype control [8]: 5.16 fold

B7: anti-LRP-8 BGK.5D10.E4 [r/m IgG2a/K] (antibody, V domains shown)
VH: QVQLRETGPDLVQPTQTLSLTCTVSGFSLTNYPVQWVRQPPGSGLEWLGIMWPSGAADFNPALKSRLSISRDTSKSQFFLRMDNLQTDDTAIYFCARGRGYSSPYAMDAWGQGTSVTVSS
VL: DIQMTQSPASLSASLGETVSIECLASEDIYNNLAWYQQKPGKSPHLLIHFTSNLQDGVPSRFSGSGSGTQYSLKINSLESEDGATYFCLQDSEYPLTFGSGTKLEIK
notes: Rat variable domains on mouse IgG2a/kappa
- EC50 [4]: 0.77 nM
- fold over isotype control [6]: 30.2 fold
- EC50 [5]: 0.24 nM
- fold over isotype control [7]: 28.2 fold
- fold over isotype control [8]: 5.85 fold

B8: anti-LRP-8 BGK.6E3.F4 [r/m IgG2a/K] (antibody, V domains shown)
VH: EVQLVESGGGLVQPGKSLKLSCAASGFTFSDYNMAWVRQAPKKGLEWVATIMYDGSRTFYRDSVKGRYTFSRDNAKSTLYLQMDSLRSEDTATYYCATGRNWFAYWGQGTLVTVSS
VL: DIIMTQSPSSLAVSAGETVTINCKSSQSLLSSGKQKNYLAWYQQKPGQSPKLLIYLASTRESGVPDRFIGSGSGTDFTLTISSMQAEDLAIYYCQQHYDTPLTFGSGTKLEIK
notes: as for B7
- EC50 [4]: 0.25 nM
- fold over isotype control [6]: 1.02 fold
- EC50 [5]: 0.11 nM
- fold over isotype control [7]: 0.87 fold
- fold over isotype control [8]: 0.41 fold

B9: anti-LRP-8 BGK-9D10-2 antibody (CL-105967) (antibody, V domains shown)
VH: EVQLVESGGGLVQSGRSLKLSCAASGFTFSNYYMAWVRQAPKKGLEWVATITTSGSRSFYPDSVKGRFTISRDNAKSSLYLQINSLKSEDTATYYCARRGPLGYFDHWGRGVMVTVSS
VL: DIQMTQSPPSLPASLGDKVTITCQASQNINKYIAWYQQKPGKAPRLLIRFTSTLESDTPSRFSGSGSGRDYSFSISNVESEDFASYYCLHYDNLPPWTFGGGTKLELK
notes: also called BGT-9D10-2
- EC50 [9]: 0.12 µg/mL and 0.6 nM
- EC50 [4]: 0.64 nM
- EC50 [5]: 2.29 nM
- EC50 [10]: 0.108 µg/mL and 0.54 nM

B10: anti-LRP-8 BGK-2C8.8C antibody (antibody, V domains shown)
VH: EVQLVESGGGLVQPGRSLKLSCAASGFTVSDYYMAWVRQAPKKGLEWVASISYEGSSTYYGDSVKGRFTISRDNAKSILYLQMNSLRSEDTATYYCARPLRYYGYNYRFAYWGQGTLVTVSS
VL: DIQMSQSPPVLSASVGDRVTLSCKASQNIHKNLDWYQQKHGEAPKLLIYYTDNLQTGIPSRFSGSGSGTDYTLTISSLQPEDVATYYCYQYNSGPTFGAGTKLELQ
- EC50 [9]: 0.0881 µg/mL and 0.44 nM
- EC50 [4]: 0.82 nM
- EC50 [5]: 2.62 nM
- EC50 [10]: 0.55 µg/mL and 2.75 nM

B11: anti-LRP-8 BGK-7F7 chimeric antibody (CL-105960) (antibody, V domains shown)
VH: QVTLKESGPGILQPSQTLSLTCTFSGFSLSTYGLGVGWIRQPSGKGLEWLANIWWDDAKYYNPSLKNRLTISKDTSNNQAFLKIPNVDTADTARYYCARTTKPYYFDYWGQGVMVTVSS
VL: HFVLAQPNSVSTNLGSTVKLSCKRSTANIGSNYVNWYQQHEGRSPTTLIYRDDRRPDGVPDRFSGSIDRSSNSALLTINNVQTEDEADYFCQSYSSGINIFGGGTKLTVL
- EC50 [4]: 0.35 nM
- EC50 [5]: 0.11 nM

B12: anti-LRP-8 BGK-6B5-2 chimeric antibody (CL-105969) (antibody, V domains shown)
VH: QVSLQESGPGILQPSQTLSLTCTFSGFSLSTFGMGVGWIRQPSGKGLEWLANIWWDDDKYYNPSLKNRLTISKDTSNNQAFLKITNVDTADTATYYCARTAKPYYFDYWGHGVMVTVSS
VL: HFVLAQPNSVSTNLGNTVKLSCKRSTGNIGSNYVNWYQQHEGRSPTTLIYRDDKRPDGVPDRFSGSFDRSSNSALLTINNVQTEDEADYFCQSYNSGINFFGGGTKLTVL
- EC50 [4]: 0.51 nM
- EC50 [5]: 0.15 nM

B13: anti-LRP-8 BGK-2H4 chimeric antibody (CL-105945) (antibody, V domains shown)
VH: EVQLVESGGGLVQPGRSMKLSCAASGFTFSSFPMAWVRQAPTKGLEWVATVSTRGGHTYYRDSVKGRFTISRDNAKNTLYLQMNSLRSEDTATYYCIREGTSLFAYWGQGTLVTVSS
VL: DIQMTQSPPSLSASLGETVSIECLASEDISNYLAWYQQKPGKSPQLLIYYANSLEDGVPSRFSGSGSGTQYSLKISNMQPEDEGVYHCQQGYNYPYTFGAGTKLELK
- EC50 [4]: 1.08 nM
- EC50 [5]: 0.21 nM

B14: anti-LRP-8 antibody CL-135325 (antibody, V domains shown)
VH: EVQLVQSGGGLVQPGGSLRLSCAASGFTFSIYAMSWVRQAPGKGLEWVSVISCSAGSTYYADSVKGRFTISRDNSKNTLYLQMNSLRAEDTAVYYCARHSVHEEFPFDVWGQGTLVTVSS
VL: DIQMTQSPSSLSASVGDRVTITCRASQSIGSYLNWYQQKPGKAPKLLIYAASSLQSGVPSRFSGSGSGTDFTLTISSLQPEDFATYYCQQSYIPPLTFGGGTKVEIK
- FACS (ratio +/-) [11]: 16.5 ratio
- OD450 [12]: 0.17 OD450

B15: anti-LRP-8 antibody CL-135359 (antibody, V domains shown)
VH: EVQLVQSGGGLVQPGGSLRLSCAASGFTFSSYAMSWVRQAPGKGLEWVSVISCSGGTTYYADSVKGRFTISRDNSKNTLYLQMNSLRAEDTAVYYCARNGGQFDLWGQGTLVTVSS
VL: DIQMTQSPSSLSASVGDRVTITCRASQGICTYLNWYQQKPGKAPKLLIYAASSLQSGVPSRFSGSGSGTDFTLTISSLQPEDFATYYCQQSYNPPLTFGGGTKVEIK
- FACS (ratio +/-) [11]: 12.6 ratio
- OD450 [12]: 0.1 OD450
